How the values were obtained:
[1] = target: HPPD polypeptides (wild-type SEQ ID NO:1 and mutants) (Pseudomonas sp., UniProt P80064, A172V/A339V/A53E/D148E/D329H/D45N/E105D/E287Q/E300V/E334P/F143Y/G286D/G335D/H150N/H254A/H63N/I158V/I187A/I249V/I344V/K92N/L18F/M263R/N24G/N280D/N336S/P267G/S245T/S257K/S301E/T205S/T269E/V65I); conditions: 15 μM Cmpd. 1, high substrate concentration (Table 3a)
[2] = system: HPPD polypeptides (purified, wild-type SEQ ID NO:1 and mutants); experiment: Coupled HPPD activity assay: ki determination, competitive inhibition fit; assay type: biochemical, Pseudomonas fluorescens; conditions: inhibitor Cmpd. 1
Protocol: For the generation of purified HPPD polypeptide samples, cells were grown for 3 h at 37° C. in 5 ml LB medium containing 100 μg/ml ampicillin in a 50 ml shaker flask at 140 rpm. One ml of this starter culture was used as inoculum for the expression culture. […] At an OD600 of about 0.6, IPTG (Roth, Karlsruhe, Germany) was added to a concentration of 0.4 mM. After further growth for 60 min at 37° C., the temperature was reduced to 28° C. and growth continued for another 18 h at 140 rpm. Cells were harvested by centrifugation at 4° C., 3200 g for 30 min in 50 ml Falcon tubes and cell pellets were stored at −80° C. […]
The resulting protein samples were re-buffered into 20 mM Tris, 20% Glycerol (pH 7.8) (Sigma-Aldrich, St. Louis, USA) by use of Zeba™ Spin Desalting Columns, 7K MWCO, 10 mL (Thermo Fisher Scientific, Waltham, USA) and analysed for protein concentration and purity by Abs280 (NANODROP 8000, Thermo Fisher Scientific, Waltham, USA) and SDS-PAGE. […]
The mutant HPPD polypeptides represented here are examples by a way of illustration, not by a way of limitation. […] The inhibitor concentrations were adopted for the respective HPPD polypeptide/inhibitor pairs to generate dynamic data, i.e. variants with lower tolerance were analyzed in a range of lower inhibitor concentrations, and concentrations of up to 1200 μM were used for variants with maximized tolerance. […]

[3] = system: E. coli cells expressing an HPPD polypeptide; experiment: Brown Color Assay on solid LB-agar, visual score of brown pigment; assay type: cell-based; set-up: key to brown pigment formation: +++: a dark brown coloring as seen for E. coli cells expressing one of the respective mutant HPPD polypeptide without inhibitor; ++: medium brown pigmentation; +: light brown pigmentation; 0: no brown pigmentation development was detected on the LB agar plates
Protocol: Mutant HPPD polypeptides were analyzed using a brown color assay (WO2014/043435). Bacterial cells expressing the mutant HPPD polypeptide according to the invention were assayed in 96 well format for HPPD inhibitor tolerance by spotting on solid media containing LB-agar, selection agent for the expression vector pSE420(RI)NX (WO2014/043435), 5 mM tyrosine (Sigma-Aldrich, St. Louis, USA), 42 mM succinate (Sigma-Aldrich, St. Louis, USA) and six different concentrations of the HPPD inhibitor herbicide Cmpd. 1 (0-500 μM). In the brown color assay, an overnight culture of the E. coli cells expressing one of the respective mutant HPPD polypeptides were diluted to an OD600 of 1 and 10 μl extract was spotted in triplicates on plates containing 0, 25, 50, 100, 250, or 500 μM of Cmpd. 1. Plates were covered with airpore tape and incubated at 30 degrees C. After 24 hours, the cells were kept in darkness at room temperature and after 7 days the brown pigment formation was scored visually. In the presence of an HPPD inhibitor herbicide, this pigment formation is inhibited and the color of the agar plate will not alter, unless an HPPD inhibitor herbicide tolerant HPPD polypeptide is expressed and active. […] The “++” and “+” scores a medium and light brown pigmentation, respectively, and the “0” means that no brown pigmentation development was detected on the LB agar plates.

[4] = system: transgenic T1 soybean events; experiment: Field trials of T1 soybean events, leaf damage eight days after application; assay type: in vivo
Protocol: Soybean plants expressing an HPPD inhibitor tolerant polypeptide of the present invention alone, or along with a gene conferring tolerance to glyphosate and/or a gene conferring tolerance to glufosinate or having a “plant expression cassette”, which includes only an HPPD inhibitor tolerant polypeptide of the present invention, were tested for tolerance to different HPPD inhibitor herbicide chemical classes. The transgenic plants were routinely analyzed for the expression and presence of the transgenes using the ELISA protein detection method (see detailed description under item D and H). Only plants recovering in the selection media and having a detectable HPPD transgene protein expression were regenerated, transferred to the greenhouse and used at V2-V4 growth stage for the HPPD inhibitor herbicide tolerance analysis of the T0 soybean events in the greenhouse (Example 6). The chemical formulation with HPPD inhibitor herbicides was supplemented with ammonium sulfate and methyl ester rapeseed oil. Herbicide tolerance evaluation was taken 5-21 days after spraying. The best performing independent T0 soybean events were selfed to produce T1 soybean seeds. In the field trails, the advanced T1 soybean seeds were planted and treated with either 210 g/ha of isoxaflutole or 150 g/ha of Cmpd.
In Table 10, the frequency of the soybean events showing a good tolerance, i.e. equal or less than 15% damage of the total leaf area are summarized

[5] = system: transgenic soybean T0 events; experiment: Additional greenhouse trials of T0 soybean events, leaf damage score 0-100 as percentiles; assay type: in vivo; conditions: Cmpd. 1 300 g AI/ha, five days
Procedure, shortened: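 Independent T0 events (21 to 94 per construct, single cassette insertion) expressing mutant HPPD were sprayed with HPPD inhibitor herbicide in the greenhouse. Leaf damage scored 5 days after application from 0 (no damage) to 100 (complete bleaching). Scores reported as percentile distributions (25th, median, 75th) per construct.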

[6] = system: transgenic soybean T0 events; experiment: Greenhouse spray test of T0 soybean events, herbicide tolerance rating 0-3; assay type: in vivo; conditions: Cmpd. 1 300 g AI/ha
Protocol: Tolerant green shoots were transferred to rooting media or grafted. Rooted plantlets were transferred to the greenhouse after an acclimation period. Plants containing the transgene were then sprayed with HPPD inhibitor herbicides, as for example with mesotrione at a rate of 300-600 g AI/ha, or with Cmpd. […] Five to ten days after the application, the symptoms due to the application of the herbicide were evaluated and compared to the symptoms observed on wild-type plants under the same conditions.
For example, T0 soybean plants having a “plant expression cassette”, which includes an HPPD inhibitor tolerant HPPD polypeptide of the present invention, were tested towards the tolerance of Cmpd. 1.
Prior greenhouse trials with the transgenic plants, soybean transformants were routinely analyzed for the expression and presence of the transgenes using the ELISA protein detection method (see detailed description under item D and H). Only plants recovering in the selection media and having a detectable HPPD transgene protein expression were used for the herbicide tolerance analysis. A DeVries Tracker Sprayer was calibrated prior to each spraying. The chemical formulation used for Cmpd. 1 was supplemented with ammonium sulfate and methylated rape seed oil. Spray tests were conducted with a concentration, which equals to 300 grams AI per hectare (300 g AI/ha). Tolerance was evaluated 5 days after spraying. […] A rating of “3” was assigned to plants showing good tolerance, i.e. less than 10% of the leaf area from the top three trifoliate leaves showing chlorosis or only very slight bleaching.

[7] = system: E. coli cells expressing an HPPD polypeptide; experiment: Brown color bioassay in liquid culture, residual brown color formation (BCF), OD440 after 96 hours; assay type: cell-based; conditions: Cmpd. 1 1000 μM, 96 hours
Procedure, shortened: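 E. coli expressing HPPD variants were grown at 30 degrees Celsius from OD600 0.3-0.5 in LB with 5 mM HPP, with or without herbicide (e.g. Cmpd. 1, 1000 μM). After 96 hours, supernatant OD440 was measured; residual brown colour formation compares pigment with and without inhibitor.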

[8] = 150 g/ha Cmpd. 1, stage V2-V4, eight days after application
[9] = 210 g/ha isoxaflutole, stage V2-V4, eight days after application

B1: SEQ ID NO:19 (protein)
chain: MADLYENPMGLMGFEFIEFASPTPGTLEPIFEIMGFTKVATHRSKNVHLYRQGEINLILNNEPNSIASYFAAEHGPSVCGMAFRVKDSQKAYNRALELGAQPIHIDTGPMELNLPAIKGIGGAPLYLIDRFGEGSSIYDIDFVYLEGVERNPVGAGLKVIDHLTHNVYRGRMVYWANFYEKLFNFREARYFDIKGEYTGLTSKAMSAPDGMIRIPLNEESSKGAGQIEEFLMQFNGEGIQHVAFLTDDLVKTWDALKKIGMRFRTAPGDEYYEMLEGRLPDHGEPVDQLQARGILLDGSSVEGDKRLLLQIFSETLMGPVFFEFIQRKGHDGFGPDSFKVLFESVERDQVRRGVLTAD
modifications: mutant HPPD polypeptide
Residual activity [1]: 68%
Residual turnover [1]: 79%
increase of ki towards Cmpd. 1 compared to SEQ ID NO:2 [2]: ~30 fold

B2: SEQ ID NO: 2: prior art mutant HPPD polypeptide (WO2014/043435): E335P G336W K339A A340Q (protein)
chain: MADLYENPMGLMGFEFIEFASPTPGTLEPIFEIMGFTKVATHRSKNVHLYRQGEINLILNNEPNSIASYFAAEHGPSVCGMAFRVKDSQKAYNRALELGAQPIHIDTGPMELNLPAIKGIGGAPLYLIDRFGEGSSIYDIDFVYLEGVERNPVGAGLKVIDHLTHNVYRGRMVYWANFYEKLFNFREARYFDIKGEYTGLTSKAMSAPDGMIRIPLNEESSKGAGQIEEFLMQFNGEGIQHVAFLTDDLVKTWDALKKIGMRFMTAPPDTYYEMLEGRLPDHGEPVDQLQARGILLDGSSVEGDKRLLLQIFSETLMGPVFFEFIQRKGDDGFGPWNFAQLFESIERDQVRRGVLTAD
modifications: mutant HPPD polypeptide
notes: prior art mutant HPPD polypeptide (WO2014/043435): E335P G336W K339A A340Q
brown pigment formation ([3]; 25 μM Cmpd. 1, scored after 7 days): ++
brown pigment formation ([3]; 50 μM Cmpd. 1, scored after 7 days): ++
brown pigment formation ([3]; 100 μM Cmpd. 1, scored after 7 days): ++
brown pigmentation, in words ([3]; 250 μM Cmpd. 1): only a slight brown pigmentation
brown pigment formation ([3]; 250 μM Cmpd. 1, scored after 7 days): +
brown pigmentation, in words ([3]; 500 μM Cmpd. 1): lost their brown pigmentation
brown pigment formation ([3]; 500 μM Cmpd. 1, scored after 7 days): 0
Frequency in the population (events with ≤15% leaf damage) [4, 8]: 41%
Independent events with ≤15% leaf damage after spray [4, 8]: 16
Frequency in the population (events with ≤15% leaf damage) [4, 9]: 26%
Independent events with ≤15% leaf damage after spray [4, 9]: 10
leaf damage score, Interquartile range ([5]; 75th minus 25th percentile): 30.0
leaf damage score, 25th percentile ([5]; scale 0 (no damage) to 100 (complete bleaching)): 15.0
leaf damage score, 75th percentile ([5]; scale 0-100): 45.0
leaf damage score, 90th percentile ([5]; scale 0-100): 87.0
leaf damage score, Median ([5]; scale 0-100): 20.0
number of events with Herbicide Tolerance Rating 0 ([6]; five days after application): 5
Percentage events rated “2 & 3” ([6]; five days, less than 50% leaf damage): 83.3%
number of events with Herbicide Tolerance Rating 1 ([6]; five days, rating 1 = slight tolerance, 50-95% leaf damage): 10
number of events with Herbicide Tolerance Rating 2 ([6]; five days, rating 2 = moderate tolerance, 10-49% of leaf area): 26
number of events with Herbicide Tolerance Rating 3 ([6]; five days, rating 3 = good tolerance, less than 10% of leaf area): 49
brown pigmentation in the presence of the HPPD inhibitor, in words [7]: did not produce a substantial brown pigmentation

Source: patent US10597674B2, “HPPD variants and methods of use” (BASF Agricultural Solutions Seed, US LLC, priority 2015, dated 2020)
